Among the data in patent publication US5864018 are % Binding values, retold here.

Where only a bound is given, the exact number is not on record here.

The target of one assay is AGE-BSA (bovine) (UniProt P02769). The assay can be described thus: excess free RAGE/DCC chimera against 125I-AGE-BSA binding to immobilized RAGE, Exp. 1.
Assay [1] concerns the target human recombinant soluble RAGE/flag fusion protein (human). The assay can be described thus: excess lactoferrin against 125I-AGE-BSA binding to immobilized RAGE, Exp. 2; the filing leaves open whether lactoferrin acts through RAGE or AGE.
Assay [2] shares this target. The assay can be described thus: excess native BSA against 125I-AGE-BSA binding to immobilized RAGE, Exp. 2.
Assay [3] has the same target. The experiment in a line: excess native BSA against 125I-AGE-BSA binding to immobilized RAGE, Exp. 3.

As for “recombinant soluble RAGE/DCC chimeric protein (receptor)”, the % Binding with AGE-BSA (bovine) was 40%.
Turning to lactoferrin (ligand), the % Binding in assay [1] turned out to be 50%.
Turning to native BSA (from UniProt P02769), the % Binding in assay [2] and in assay [3] was over 100% each time.
